From US20200181597A1, “Composition and Application of Arginine-depleting Agents for Cancer, Obesity, Metabolic Disorders, and Related Complications and Comorbidities” (THE HONG KONG POLYTECHNIC UNIVERSITY, priority 2018, published 2020)

Key:
Type in all cases: in vivo, C57BL/6J male mice
[1] = Treatment of pre-existing HFD-induced obesity (DIO), male mice
Source text: After confirming that concurrent treatment with N-ABD094-rhArg (SEQ ID NO: 50) can effectively prevent HFD-induced obesity and associated complications and comorbidities including insulin resistance, glucose intolerance, hyperglycemia, dyslipidemia, hepatic steatosis, chronic inflammation, and whitening of BAT, next, we studied the efficacy of N-ABD094-rhArg (SEQ ID NO: 50) in reducing obesity and reversing these disorders in mice with pre-existing diet-induced obesity (DIO). C57BL/6J male mice were fed a HFD from 5 week old for 12 weeks to induce obesity and associated complications and comorbidities. They were then stratified according to the bodyweight into 2 groups and treated with either 600-700U N-ABD094-rhArg (SEQ ID NO: 50) or saline as vehicle control at 7-day intervals for 12 weeks while continued to be fed the HFD. One group of mice were fed a matched low fat diet (LFD) and injected with saline throughout the study to serve as the lean control of various measurements. Two cohorts, with n=5 in each group, have been separately conducted. Mice were housed in groups of 5. Similar results were obtained in the two independent cohorts. Data of one cohort of mice were presented in Examples 23-28.

[2] = Prevention of HFD-induced obesity, male mice
Source text: To determine the efficacy of N-ABD094-rhArg (SEQ ID NO: 50) in preventing mice from diet-induced obesity and associated metabolic disorders, C57BL/6J male mice were fed a high-fat diet containing 60 kcal % fat (HFD; Research Diets, D12492) from 8 week old for 12 weeks, and concurrently received i.p. injection of 200-300U N-ABD094-rhArg (SEQ ID NO: 50) or saline as vehicle control at 7-day intervals. C57BL/6J mice fed a matched low fat diet containing 10 kcal % fat (LFD; Research Diets, D12450J) and injected with saline served as the lean control of various measurements.
Two cohorts, with n=5 in each group, had been separately conducted. Mice were housed in group of 5. Similar results were obtained in the two independent cohorts. Data of one cohort of mice were summarized in Examples 18-22.

plasma arginine = test: Plasma arginine after single i.p. 500U N-ABD094-rhArg (LC-MS/MS)
Procedure: Each time point represents mean±SEM of 5 mice.
Fifty C57BL/6J male mice (10-12 weeks of age) were used in this study. A single dose of 500U N-ABD094-rhArg (SEQ ID NO: 50) was administered to the mouse via i.p. injection. Blood samples were collected from the saphenous vein using heparinized capillary tubes, and were centrifuged at 800×g to obtain plasma.
Following injection, serum was collected at Hour 2, Hour 4, Hour 8, Hour 16, Hour 24 (Day 1) and from Day 2 to Day 12 at 24-hour intervals, and from Day 12 to Day 30 at 72-hour intervals. To strike a balance between the number of animals used and to minimize the effect on results of pharmacokinetics and pharmacodynamics study caused by removal of N-ABD094-rhArg (SEQ ID NO: 50) from the mouse as a consequence of blood collection, mice were divided into 10 groups, with n=5 in each group, and subjected to blood collection at the indicated time-point(s) shown in brackets: Group 1 (Hour 2), Group 2 (Hour 4), Group 3 (Hour 8), Group 4 (Hour 16), Group 5 (Hour 24), Group 6 (Day 2, Day 7, Day 12), Group 7 (Day 3, Day 8, Day 18), Group 8 (Day 4, Day 9, Day 21), Group 9 (Day 5, Day 10, Day 15, Day 24), Group 10 (Day 0, Day 6, Day 11, Day 27, Day 30).

B1: N-ABD094-rhArg: albumin binding domain ABD094 fused N-terminally to recombinant human arginase I, SEQ ID NO: 50 (protein)
chain: MHHHHHHDEAVDANSLAEAKEAANAELDSYGVSDFYKRLIDKAKTVEGVEALKDAILAALPSGSNNNNNNGSGGMSAKSRTIGIIGAPFSKGQPRGGVEEGPTVLRKAGLLEKLKEQECDVKDYGDLPFADIPNDSPFQIVKNPRSVGKASEQLAGKVAEVKKNGRISLVLGGDHSLAIGSISGHARVHPDLGVIWVDAHTDINTPLTTTSGNLHGQPVSFLLKELKGKIPDVPGFSWVTPCISAKDIVYIGLRDVDPGEHYILKTLGIKYFSMTEVDRLGIGKVMEETLSYLLGRKKRPIHLSFDVDGLDPSFTPATGTPVVGGLTYREGLYITEEIYKTGLLSGLDIMEVNPSLGKTPEEVTRTVNTAVAITLACFGLAREGNHKPIDYLNPPK
modifications: Mn2+; N-ABD094-rhArg, Synthesized in the Lab
HOMA-IR score ([1]; 4 weeks after treatment (35.1 prior to treatment)): 1.2
Mcp1 and Tgfb expression in pancreas ([1]; 12 weeks): significantly downregulate
Mcp1 expression in perigonadal WAT ([1]; 12 weeks): significantly downregulated
WAT within the pancreas and heart (histology) ([1]; 12 weeks): prominent reduction
amount of collagen fibres in kidney (Sirius red) ([1]; 12 weeks): prominently reduced
anti-inflammatory genes (Il10, Il22, Infg) in liver ([1]; 12 weeks): markedly upregulate
lipid droplets in liver (oil red O) ([1]; 12 weeks): dramatic clearance
liver triglyceride concentrations ([1]; 12 weeks): reduced to a level similar to the lean control
plasma ALT and AST concentrations ([1]; 12 weeks): comparable to the lean control
profibrotic gene Col1a1 in kidney ([1]; 12 weeks): greatly suppressed
profibrotic gene Tgfb in liver ([1]; 12 weeks): restored to a level similar to the lean control
proinflammatory genes (Il1a, Il1b) in liver ([1]; 12 weeks): significantly downregulate
proinflammatory genes (Mcp1, Tnfa, Il1b) in kidney, downregulated to ([1]; 12 weeks): levels similar to the lean control
serum concentrations of Mcp1 ([1]; 12 weeks): corrected to a level similar to the lean control mice
triglyceride concentrations in kidney, pancreas, heart and skeletal muscle ([1]; 12 weeks): restored a level similar to the lean control
vacuoles in renal tubules and lipids in glomeruli (histology) ([1]; 12 weeks): marked reduction
weight of kidney, pancreas and heart ([1]; 12 weeks, to a level similar to lean control): significantly reduce
reduction of bodyweight ([1]; 600-700U at 7-day intervals, by 5 weeks, HFD continued): over 30%
fasting plasma leptin and total cholesterol levels ([1]; 600-700U weekly): markedly reduced to normal levels
adipocyte size in WAT (histology) ([1]; 600-700U weekly, 12 weeks): prominent diminution
weight of fat pad at visceral and subcutaneous depots ([1]; 600-700U weekly, 12 weeks): significantly reduced
mRNA levels of lipogenesis related genes in liver ([1]; 600U weekly, 12 weeks): significantly downregulated
glucose tolerance (GTT) ([1]; by 3 weeks of treatment): significant improvement
fasting blood glucose and plasma insulin ([1]; by 4 weeks of treatment): restored to levels similar to the lean control mice
insulin sensitivity (ITT) ([1]; by 4 weeks of treatment, comparable to lean control): marked increase
glucose tolerance (GTT) ([1]; by 7 weeks of treatment, level similar to lean control): fully restored
HFD-induced downregulation of Acox1 in BAT ([2]; 12 weeks HFD): block the downregulation
HFD-induced upregulation of adipogenic transcription factors and lipogenic enzymes in the liver ([2]; 12 weeks HFD): significantly suppress
mRNA of Ucp1 and Pgc1α in BAT ([2]; 12 weeks HFD): significantly upregulated
mRNA of proinflammatory adipokines (Mcp1, Il1b, Tnfa) in perigonadal WAT ([2]; 12 weeks HFD): suppress the upregulation
serum levels of Mcp1 (ELISA) ([2]; 12 weeks HFD): suppress an elevation
weight of kidney, pancreas and heart ([2]; 12 weeks HFD): effectively prevent weight gain
weight gain and expansion of WAT caused by HFD ([2]; 200-300U i.p. at 7-day intervals, 12 weeks, concurrent with HFD): effectively prevented
adipocyte hypertrophy in WAT (histology) ([2]; 200-300U weekly, 12 weeks, HFD): prominently suppressed
mRNA of Pparg, Srebp1c, Acc1, Scd1 in gWAT ([2]; 200-300U weekly, 12 weeks, HFD): dramatic downregulation
mRNA of Pparg, Srebp1c, Acc1, Scd1 in skeletal muscle ([2]; 200-300U weekly, 12 weeks, HFD): significantly downregulated
development of hyperglycemia and hyperinsulinemia (fasting blood glucose, plasma insulin, HOMA-IR) ([2]; concurrent weekly treatment, HFD): completely prevent
development of HFD-induced impaired glucose tolerance (GTT) ([2]; concurrent weekly treatment, GTT at 5 and 10 weeks): completely prevent
development of HFD-induced insulin resistance (ITT) ([2]; concurrent weekly treatment, ITT at 6 and 11 weeks): completely prevent
development of hyperleptinemia, hypercholesterolemia, hypertriglyceridemia, hyper-free fatty acidemia ([2]; fasting plasma at 12 weeks of HFD): completely prevent
plasma arginine concentration reached within 2 hour after injection (plasma arginine; 500U i.p.): 1 µM
Plasma arginine concentrations (Mean of 5 mice ± SEM) (plasma arginine; Day 2 after i.p. 500U): 0.944 ± 0.007 µM
Plasma arginine concentrations (Mean of 5 mice ± SEM) (plasma arginine; Day 3 after i.p. 500U): 0.965 ± 0.008 µM
Plasma arginine concentrations (Mean of 5 mice ± SEM) (plasma arginine; Day 4 after i.p. 500U): 0.535 ± 0.121 µM
Plasma arginine concentrations (Mean of 5 mice ± SEM) (plasma arginine; Day 5 after i.p. 500U): 0.681 ± 0.043 µM
Plasma arginine concentrations (Mean of 5 mice ± SEM) (plasma arginine; Day 6 after i.p. 500U): 0.896 ± 0.089 µM
Plasma arginine concentrations (Mean of 5 mice ± SEM) (plasma arginine; Day 7 after i.p. 500U): 0.792 ± 0.135 µM
Plasma arginine concentrations (Mean of 5 mice ± SEM) (plasma arginine; Day 8 after i.p. 500U): 0.916 ± 0.079 µM
Plasma arginine concentrations (Mean of 5 mice ± SEM) (plasma arginine; Day 9 after i.p. 500U): 1.224 ± 0.178 µM
Plasma arginine concentrations (Mean of 5 mice ± SEM) (plasma arginine; Day 10 after i.p. 500U): 0.721 ± 0.054 µM
Plasma arginine concentrations (Mean of 5 mice ± SEM) (plasma arginine; Day 11 after i.p. 500U): 3.828 ± 1.511 µM
Plasma arginine concentrations (Mean of 5 mice ± SEM) (plasma arginine; Day 12 after i.p. 500U): 7.607 ± 2.325 µM
Plasma arginine concentrations (Mean of 5 mice ± SEM) (plasma arginine; Day 15 after i.p. 500U): 31.283 ± 4.569 µM
Plasma arginine concentrations (Mean of 5 mice ± SEM) (plasma arginine; Day 18 after i.p. 500U): 48.648 ± 3.989 µM
Plasma arginine concentrations (Mean of 5 mice ± SEM) (plasma arginine; Day 21 after i.p. 500U): 73.55 ± 3.76 µM
Plasma arginine concentrations (Mean of 5 mice ± SEM) (plasma arginine; Day 24 after i.p. 500U): 76.07 ± 4.92 µM
Plasma arginine concentrations (Mean of 5 mice ± SEM) (plasma arginine; Day 27 after i.p. 500U): 111.09 ± 6.21 µM
Plasma arginine concentrations (Mean of 5 mice ± SEM) (plasma arginine; Day 30 after i.p. 500U): 110.91 ± 3.81 µM
Plasma arginine concentrations (Mean of 5 mice ± SEM) (plasma arginine; Hour 2 after i.p. 500U): 1.007 ± 0.013 µM
Plasma arginine concentrations (Mean of 5 mice ± SEM) (plasma arginine; Hour 4 after i.p. 500U): 0.934 ± 0.021 µM
Plasma arginine concentrations (Mean of 5 mice ± SEM) (plasma arginine; Hour 8 after i.p. 500U): 0.912 ± 0.006 µM
Plasma arginine concentrations (Mean of 5 mice ± SEM) (plasma arginine; Hour 16 after i.p. 500U): 0.943 ± 0.010 µM
Plasma arginine concentrations (Mean of 5 mice ± SEM) (plasma arginine; Hour 24 after i.p. 500U): 0.934 ± 0.007 µM
